Results on 167 variants are retold here after the RNAGym collection of RNA variant scans (doi:10.7554/elife.80360).

To fix the notation:
B1: HDV Ribozyme (parent)
chain: GGCCGGCAUGGUCCCAGCCUCCUCGCUGGCGCCGGCUGGGCAACAUUCCGAGGGGACCGUCCCCUCGGUAAUGGCGAAUGGGACCCA

In this data set the parent is B1. The data set can be described thus: self-cleavage, relative activity (ratio to wild type); higher = more cleavage; co-transcriptional.
For the variant A16U C18G, the self-cleavage amounted to 0.227.

Turning to C3A A8U, the self-cleavage was determined as 0.269.

For the variant U37A C75A, the self-cleavage is 0.0707.

For the variant C49A G50U, the self-cleavage was 0.816.

With U37C G73U, the self-cleavage is 0.185.

On to A16G C48A, for which the self-cleavage worked out at 0.802.

Regarding G5U G67C, the self-cleavage amounted to 0.582.

For the variant A45G A70U, the self-cleavage turned out to be 1.09.

For C15U G82U, the self-cleavage came to 0.231.

Regarding A8U A70C, the self-cleavage worked out at 0.692.

Turning to C30U C41G, the self-cleavage was found to be 0.212.

On to C57G G59A, for which the self-cleavage was 0.997.

With U47G A83G, the self-cleavage came to 0.8.

Consider A51U A87C, for which the self-cleavage was 0.959.

For C3U A56G, the self-cleavage was 0.831.

As to G17A C85G, the self-cleavage was determined as 0.814.

For G34U C64A, the self-cleavage is 0.268.

For A8C G67U, the self-cleavage was 0.739.

For C64U G67U, the self-cleavage turned out to be 0.804.

For the variant G76C A83C, the self-cleavage is 0.201.

On to U12G G38A, for which the self-cleavage was 0.0978.

Consider C14A G59C, for which the self-cleavage came out at 0.739.

For the variant C49A C85A, the self-cleavage stood at 1.13.

Consider G52C G53C, for which the self-cleavage is 0.582.

For the variant U65A G80C, the self-cleavage worked out at 0.123.

For A51U C64U, the self-cleavage is 0.927.

As for G29A C48U, the self-cleavage is 0.0656.

As to G34U G67U, the self-cleavage came to 0.231.

Turning to G54U U72G, the self-cleavage came out at 0.919.

G28U G38A: the self-cleavage was 0.0863.

Regarding C64U G76U, the self-cleavage was determined as 1.15.

With G2C U47C, the self-cleavage came to 0.102.

Consider C3A G34C, for which the self-cleavage stood at 0.0903.

Consider U60G G80C, for which the self-cleavage was 0.141.

Consider G2C C32U, for which the self-cleavage worked out at 0.101.

Regarding G34C G73C, the self-cleavage turned out to be 0.17.

For C21G, the self-cleavage came out at 0.0702.

Take U12G G76C: the self-cleavage came out at 1.2.

Regarding C15A A56C, the self-cleavage came to 0.782.

Regarding A8C G29A, the self-cleavage amounted to 0.18.

With G6U C7U, the self-cleavage is 0.151.

On to U46A U65G, for which the self-cleavage worked out at 0.675.

Regarding A42C C61A, the self-cleavage is 0.312.

Take G55A A56U: the self-cleavage worked out at 0.926.

Turning to C19A U79C, the self-cleavage came out at 0.107.

As to C3A C33U, the self-cleavage came to 0.166.

Consider G1U U46C, for which the self-cleavage is 0.277.

As to G1C C26A, the self-cleavage came out at 0.166.

In the case of G59A A71C, the self-cleavage was 0.743.

For the variant C14U G82U, the self-cleavage worked out at 0.494.

In the case of C26A C30G, the self-cleavage came to 0.17.

For C32A A43C, the self-cleavage stood at 0.162.

Regarding C3G C13G, the self-cleavage is 0.0504.

Take G17C C30A: the self-cleavage was found to be 0.342.

Consider C24U G81A, for which the self-cleavage was 0.185.

On to G31U C44U, for which the self-cleavage amounted to 0.156.

In the case of G52U G74C, the self-cleavage was determined as 0.363.

On to C3U G54C, for which the self-cleavage worked out at 0.636.

As for G52A A78U, the self-cleavage worked out at 0.277.

As to G31C G67C, the self-cleavage came to 0.272.

As for U23C C32G, the self-cleavage is 0.0415.

Take C33G G59A: the self-cleavage was determined as 0.188.

As for G11A C19A, the self-cleavage worked out at 0.0811.

For C33U C48U, the self-cleavage was 0.847.

Turning to C18G C33U, the self-cleavage came out at 0.128.

In the case of G54A G67C, the self-cleavage came to 0.591.

As to C41G A87U, the self-cleavage is 0.788.

Regarding C15A A71G, the self-cleavage amounted to 0.443.

For G31A G53C, the self-cleavage amounted to 0.305.

With C22U A83G, the self-cleavage amounted to 0.12.

For the variant U47C G82A, the self-cleavage came out at 0.401.

In the case of G28U C66A, the self-cleavage amounted to 0.197.

As for U9A U72G, the self-cleavage was 0.787.

As to C21A C57U, the self-cleavage stood at 0.192.

For the variant G11U C75G, the self-cleavage came to 0.0264.

As to C15U A16U, the self-cleavage worked out at 1.26.

Regarding C18U G28U, the self-cleavage was determined as 0.0573.

With G2U C41G, the self-cleavage worked out at 0.0119.

Turning to A16C C36A, the self-cleavage was determined as 0.135.

As for G10C C30A, the self-cleavage was 0.107.

On to A45G A87G, for which the self-cleavage is 0.868.

In the case of G50C A71C, the self-cleavage worked out at 0.252.

With C22U C62A, the self-cleavage is 0.623.

U47G A87C: the self-cleavage was 1.05.

For the variant A51G A71C, the self-cleavage came out at 0.458.

Take C15U C66U: the self-cleavage worked out at 1.21.

On to C24A G40A, for which the self-cleavage was found to be 0.809.

On to C13U A78C, for which the self-cleavage was determined as 0.119.

G6C G59C: the self-cleavage worked out at 0.277.

Turning to A16C U20C, the self-cleavage was 0.277.

On to C22G U72A, for which the self-cleavage stood at 0.196.

Take C36U G73C: the self-cleavage worked out at 0.161.

Take G34C G53U: the self-cleavage came to 0.163.

For C41U U47A, the self-cleavage was 0.96.

On to A16G U79G, for which the self-cleavage was determined as 0.598.

On to U9C C86G, for which the self-cleavage was 1.14.

Take C66A C86U: the self-cleavage was determined as 0.9.

In the case of U72G C75A, the self-cleavage came to 0.0665.

On to A16G A78G, for which the self-cleavage amounted to 0.465.

Turning to G31A U46C, the self-cleavage was 0.166.

As for C14U C41U, the self-cleavage was determined as 1.11.

With A56G U69C, the self-cleavage was determined as 1.32.

On to C36A G38A, for which the self-cleavage was 0.0845.

Take C33G G55A: the self-cleavage was 0.218.

For G6C C26A, the self-cleavage is 0.369.

On to U23C G29A, for which the self-cleavage was determined as 0.0665.

As for C19G G59A, the self-cleavage is 0.0542.

As for G39C, the self-cleavage was 0.245.

For U47G G81U, the self-cleavage worked out at 0.214.

Consider C15U U65C, for which the self-cleavage came out at 0.674.

Consider G2A C66A, for which the self-cleavage came out at 0.194.

Regarding G73C A77C, the self-cleavage came to 0.287.

In the case of U72A G80C, the self-cleavage amounted to 0.219.

For U12G G59C, the self-cleavage came to 0.95.

With U47C C62U, the self-cleavage is 1.16.

C18G C22A: the self-cleavage worked out at 0.172.

Regarding U9G C58G, the self-cleavage came to 1.02.

Take U23C G28C: the self-cleavage is 0.0639.

C36G C84A: the self-cleavage was found to be 0.0773.

For the variant C14G G54A, the self-cleavage was 0.639.

With G10C C62G, the self-cleavage is 0.719.

For G35A G52C, the self-cleavage came out at 0.409.

Take G11A U60G: the self-cleavage worked out at 0.399.

C26G C86U: the self-cleavage worked out at 0.831.

Take G35A G39U: the self-cleavage is 0.128.

For the variant G5C U23A, the self-cleavage was 0.

For the variant U60C C75A, the self-cleavage came out at 0.237.

Take U9C U69C: the self-cleavage worked out at 0.969.

With G29A C36A, the self-cleavage was 0.0222.

Regarding G52C U72G, the self-cleavage worked out at 0.723.

With C32G G53U, the self-cleavage came out at 0.196.

C15A C63A: the self-cleavage amounted to 0.403.

For the variant G29A G38U, the self-cleavage was 0.113.

Regarding G39U G59U, the self-cleavage was determined as 1.02.

On to C30U G53A, for which the self-cleavage came out at 0.547.

As for C14G C84U, the self-cleavage was 0.415.

On to A8G G17C, for which the self-cleavage was 0.0519.

Turning to C18A C24G, the self-cleavage was determined as 0.107.

Consider C4A U65C, for which the self-cleavage came out at 0.567.

Turning to G5A G53A, the self-cleavage turned out to be 0.248.

Turning to G35A G73U, the self-cleavage worked out at 0.223.

In the case of G17A C84A, the self-cleavage came out at 0.807.

With C14G G31U, the self-cleavage is 0.0386.

On to G25C C33G, for which the self-cleavage worked out at 0.201.

As for G2C G74A, the self-cleavage is 0.113.

Regarding G68U A71G, the self-cleavage came out at 1.04.

For A16G C41G, the self-cleavage was 0.623.

As to U20A C49U, the self-cleavage amounted to 0.0665.

With A83G C86U, the self-cleavage is 1.08.

Turning to C13G G73A, the self-cleavage worked out at 0.0665.

Turning to G17A A42U, the self-cleavage was found to be 0.119.

As to G82C C85U, the self-cleavage came to 0.18.

As to U37G U69C, the self-cleavage was determined as 0.128.

Consider G50C G52U, for which the self-cleavage came out at 0.554.

On to C7U G74C, for which the self-cleavage worked out at 0.325.

With G25C C49U, the self-cleavage worked out at 0.222.

As for U12G C61G, the self-cleavage is 0.798.

For C18U A83U, the self-cleavage came out at 0.243.

Turning to C36A C49A, the self-cleavage came to 0.0554.

Regarding G17U A83U, the self-cleavage was found to be 0.34.

On to G6U G39U, for which the self-cleavage was 0.106.

Turning to C19A A45G, the self-cleavage is 0.0369.

As to C13U C26G, the self-cleavage was found to be 0.831.

Turning to U12G C48U, the self-cleavage was 1.2.

With C44G G74U, the self-cleavage came to 0.318.

For C30U A77C, the self-cleavage stood at 0.181.

A42C A43C: the self-cleavage came to 0.
